Test results from the RNAGym collection of RNA variant scans (doi:10.1073/pnas.2313332121).
Variants at the floor of the assay were thinned out.

B1: TPR 5TU (parent)
chain: GGAUCUUCUCGAUCUAACAAAAAAGACAAAUCUGCCACAAAGCUUGAGAGCAUCUUCGGAUGCAGAGGCGGCAGCCUUCGGUGGCGCGAUAGCGCCAACGUUCUCAACUAUGACACGCAAAACGCGUGCUCCGUUGAAUGGAGUUUAUCAUG

Variants of: B1
Assay: polymerase ribozyme fitness, log enrichment relative to wild type (log ratio); higher = more active; in vitro selection for triplet polymerase activity
Method in brief: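 Genotype fitness is the logarithm of its enrichment divided by wild-type enrichment, using inverse-variance-weighted averages of replicates. That logarithm is base 2. Enrichment was measured by Illumina sequencing of input and output libraries from one triplicate in vitro selection round, with frozen incubation at −7 °C, on PCR-built, transcribed mutant libraries of each subunit of a heterodimeric triplet polymerase ribozyme, retaining genotypes with ≥10 input reads and ≥1 read per output.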

GGAUCUUCUCGAUCUAAAAAAAAAGACAAAUCUGCCAUAAAGCUUGAGAGUAUCUUCGGAUGCAGAGGCGGCAGCCUUCGGUGGCGCGAUAGCGCGAACGUUCUCAACUAUGACAGGCAAAACGCGUGCUCCGUUGAAUGGAGUUUAACAUG [C18A C38U C51U C96G C116G U148A] and GGAUCUUCUCGAUCUAAGUAAAAAGACAAAUCUGCCACAAACCUUGAGACCAUCUUCGGAUGCAGAGGCGGCAGCCUUCGGUGGCGCGAGAUCGCCAACGUUCUCAACUAUGACACGCAAAACGCGUGCUCCGUUGAAUGGAGUUUAUCAUG [C18G A19U G42C G50C U90G G92U] cannot be ordered by “polymerase ribozyme fitness (log ratio)” value: no more than -4.2 for the first, no more than -4.2 for the second.

GGAUCUUCUCGAUCUAAAAAAAAAGACGACUCUGCCACAAAGCUUAAGAGCAUCUUCGGAUGCAGAGGCGGCACCCUUCGGUGGCGCGAUAGCGCCAACGUUCUCAACUAUGACACGCAAAACGCGUGCUCCGUUGAAUGGAGUUUAUCAUG [C18A A28G A30C G46A G74C] and GGAUCUUCUCGAUCUAAACAAAAAGACAAAUCUGCCACAAAGCUUGAGAUCAUCUUCGGAUGCAGAGGCGGCAGUCUUCGGUGGCGCGAUAGCGCCAACGUUCUCAACUUUGACACGCAAAACGCGUGCUCCGUUGAAUGGAGUUUAUCAUG [C18A A19C G50U C75U A110U] cannot be ordered by “polymerase ribozyme fitness (log ratio)” value: no more than -4.2 for the first, no more than -4.2 for the second.

Going from GGAUCUUCUCGAUCUAAAAAAAGAGACCAAUCUGCCACAAAGUUUGAGAGCCUCUUCGGAUGCAGAGGCGGCAGCCUUCGGUGGCGCGAUAGCGCCAACGUUCUCAACUAUGACACGCAAAACGCGUGCUCCGUUGAAUGGAGUUAAUCAUG [C18A A23G A28C C43U A52C U146A] to GGAUCUUCUCGAUCUAAAAAAAAAGACAAAGCUGCCACAAAGCUUGAGAGCAUCUUCGGAUGCAGAGGCGGCAGCCUUCGGUGCCGCGUUAGCGCCAACGUUCUCAACUAUGACACGCAAAACGCGUGCUCCGUUGAAUGGAGUUUAUCAUG [C18A U31G G84C A89U], the “polymerase ribozyme fitness (log ratio)” value rises from no more than -4.2 to -2.91.

First: GGAUCUUCUCGAUCUAAAAAGAAAGACAAAUCGGCAACAAAGCUUGAGAGCAUCUUCGGAUGCAGAGGCGGCAGCCUUCGGUGACGCGAUAGCGCCAACGUUCUCAACUAUGACACGCAAAACGCGUGCUCCGUUGAAUGCAGAUUAUUAUG [C18A A21G U33G C36A G84A G141C U144A C149U]
Second: GGAUCUUCUCGAUCUAAAACAAAAGACAAAUCUGCCACAAAGCUUGAGAGCAUCUUCGGAUGCAGAGGCGGCAGCCUUCGGCGGCGCGAUAGCGCCAACGUUCUCAACUAUGACACGCAAACCGCGUGCUCCGUUGAAUGGAGUUUAUCAUG [C18A A20C U82C A122C]
The “polymerase ribozyme fitness (log ratio)” value of the first is lower: no more than -4.2 for the first, -1.71 for the second.

GGAUCUUCUCGAUCUAAAAAAAAAGACAAAUCUGCCACAAAGCUUGAGAGCAUCUUCGGAUGCAGAGGCAGCAGCCUUCGGUGUCGCGAUAGCGCCAACGUUCUCAACUAUGACACGCAAAACGCGUGCGCCGUUGAAUGGAGUUUAUCAUG [C18A G70A G84U U130G] and GGAUCUUCUCGAUCUAUCAAAAAAGACAAAUCUGCCACAAAGCUUGAGAGCAUCUCCGGAUGCAGAGGCGGCAUCUUUCGGUGUCGCGAUAGCGCCAACGUUCUCAACUAUGACACGCAAAACGGGUGCUCCGUUGACUGGAGUUUAUCAUG [A17U U56C G74U C76U G84U C125G A138C] cannot be ordered by “polymerase ribozyme fitness (log ratio)” value: no more than -4.2 for the first, no more than -4.2 for the second.

GGAUCUUCUCGAUCUAAAAAAAAAGACAUAUCUGCCACAAAGCUUGAGAGCAUCUUCGGAUGCAGAGGCGGCAGCCUUCGGUGGCGCGAUAGCGCCAACGUUCUCAACUAUGACACGCAAAACGCGUGCUCCGUUAAAUGGAGUUUAUCAUG [C18A A29U G136A] and GGAUCUUCUCGAUCUAUCAAAAAAGACAAAUCUGCCACAAAGCUUGAGAGCAUCGUCGGAUGCAGAGUCGGCAGCCUUCGGUGACGCGAUAGCGCCAACGUUAUCAACUAUGACACGCAAAACGCGUGCUCCGUUGAAUGGAGUUUAUCAUA [A17U U55G G68U G84A C103A G152A] cannot be ordered by “polymerase ribozyme fitness (log ratio)” value: no more than -4.2 for the first, no more than -4.2 for the second.

GGAUCUUCUCGAUCUAAAAAAAAAGUCAAAUCUGCCACAAAGCUUGAGAGCAUCUUCGGAUGCAGAGGCGGCAGCCUUCGGUGACGCGAUAGCGCCAACGUUCUCAACUAUGACACGCAAAACGCGUGCUCCGUUGAGUGGAGUUUAUCAUG [C18A A26U G84A A138G] and GGAUCUUCUCGAUCUAAAUAAAAAGACAAAUCUGCCACAAAGCUUGAGAGCAUCUUCGGAUGCAGAGGCGGCAGCAUUCGGUGGUGCGAUAGCGCCAAUGUUCGCAACUGUGACACGCAAAACGCGUGCUCCGUUGAAUGGACUUUAUCAUG [C18A A19U C76A C85U C99U U104G A110G G143C] cannot be ordered by “polymerase ribozyme fitness (log ratio)” value: no more than -4.2 for the first, no more than -4.2 for the second.

Going from GGAUCUUCUCGAUCUAAGCAAAAAGACAAAUCUGCCACAAAGCUUGAGAGCAUCUUCGGAUGCAGAGGCGGCAGCCUUCGGUGGCGCAAUAUCGUCAACGUUCUCAACUAUGACACGCAAAACGCGUGCUCCGAUGAAUGGAGUUUAUCAUG [C18G A19C G88A G92U C95U U134A] to GGAUCUUCUCGAUCUAUCAAAAAAGACAAAUCUGCCACAAAGCUUGAGAGCAUCUUCGGAUGCAGAGGCGGCAGCCUUCGGUGGCGCGAUAGCGCCAACGUUCACUACUAUGACACGCAAAACGCGUGCUCCGUUGAAUGCAGUUUAUCAUG [A17U U104A A106U G141C], the “polymerase ribozyme fitness (log ratio)” value falls from -4.03 to no more than -4.2.

GGAUCUUCUCGAUCUAAAAUAAAAGAGAAUUCUGCCACAAAGCUUGAGAGCAUCUGCGGAUGCUGAGGCGGCAGCCUUCGGUGUCGCGAUAGCGCCAACGUCCUCAACUAUUACACGCAAAACCCGUGCUCCGUUGAAUGGAGUUUAUCAUG [C18A A20U C27G A30U U56G A64U G84U U102C G112U G124C] and GGAUCUUCUCGAUCUAUCAAAAAAGACAAAUCUGCCACAAAGCUUGAGAGCAGCUUCGGAUGCAGAGGCGGCAGCCUUCGGUGGCGCGAUAGCGCCAAAGUUCUCAACUAUGACACGCAAAACGGGUGCUCCGUUGAAUGUAGUUCAUCAUG [A17U U53G C99A C125G G141U U146C] cannot be ordered by “polymerase ribozyme fitness (log ratio)” value: no more than -4.2 for the first, no more than -4.2 for the second.

For GGAUCUUCUCGAUCUAAAGAAAAAGACAAAUCUGCCACAAAGCUUGAGAGCAUCUUAGGAUGCAGAGGCGGCAGCCUUCGGUGGCGUGAUAGCGCCAACGUUCUCAACUAUGACACGCAAAACGCGUGAUCCGUGGAAUGGAGUUUAUCAUG [C18A A19G C57A C87U C129A U135G], the “polymerase ribozyme fitness (log ratio)” value was no more than -4.2.
